The values below come from publication PMC8887127.

The target in series [1] is T1, GST-BEND3-BD4 (gel shift construct) (Homo sapiens, UniProt Q5T5X7 546-828).
T1 sequence: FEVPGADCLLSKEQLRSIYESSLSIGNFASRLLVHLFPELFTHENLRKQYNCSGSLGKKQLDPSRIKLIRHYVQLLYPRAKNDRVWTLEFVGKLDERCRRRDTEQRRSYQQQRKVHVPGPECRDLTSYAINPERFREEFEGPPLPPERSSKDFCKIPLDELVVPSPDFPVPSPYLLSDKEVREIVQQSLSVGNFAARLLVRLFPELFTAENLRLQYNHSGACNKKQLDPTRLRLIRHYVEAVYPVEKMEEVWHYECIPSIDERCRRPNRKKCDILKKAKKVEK
The series is described as follows: EMSA.

Series [2] addresses T2, BEND3-BD4 (crystal construct) (Homo sapiens, UniProt Q5T5X7 715-828).
T2 sequence: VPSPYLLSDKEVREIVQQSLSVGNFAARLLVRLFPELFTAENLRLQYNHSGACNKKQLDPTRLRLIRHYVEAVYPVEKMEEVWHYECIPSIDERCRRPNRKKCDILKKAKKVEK
The series can be described thus: X-ray crystallography.

B1: mutant BD4 probe (dsDNA)
DNA 1: CTAAACCTTTCTACGCTAAAACCTGTCTT
DNA 2: AAGACAGGTTTTAGCGTAGAAAGGTTTAG
Turning to B1, the binding result in series [1] is listed as “no binding”.

B2: wild-type BD4 probe (dsDNA)
DNA 1: CTAAACACCCACGCGCCGTGGGTTGTCTT
DNA 2: AAGACAACCCACGGCGCGTGGGTGTTTAG
Turning to B2, in series [1], the binding result is recorded as “binds”.

B3: 13-mer BD4 target duplex (dsDNA)
DNA 1: GGACCCACGCAGC
DNA 2: GGCTGCGTGGGTC
B3: the binding result in series [2] is “binds”.
